{"source": "patent US20260232732A1", "about": "(FUNDACI INSTITUT DE RECERCA CONTRA LA LEUC MIA JOSEP …, published 2026)", "binders": {"B1": {"name": "Comparative antibody 1 (Comp-1) scFv, SEQ ID NO: 10 from WO2023/037125 A1, His-tagged (scFv)", "scFv": "QVQLKESGPGLVQPSQTLSLTCTVSGFSVASYDMHWVRLPPGKGLEWMGIIWANGNTHYNSGLKSRLSISRDTSKSQVFLKMNSLQTEDTAIYFCTRGGFAYWGQGTLVTVSSGGGGSGGGGSGGGGSGGGGSDVVMTQTPVSLSVSLGGQVSISCRSSQSLVHNNGNTYLSWYLQKPGQSPQLLIYKVSNRFSGVSDRFSGSGSGTDFTLKISRVEPDDLGVYYCGQGTQYPTFGGGTKLELKHHHHHH"}}, "key": {"naked peptide MTPTDFTSPI": {"molecular_target": "T1, naked peptide MTPTDFTSPI (human)", "T1 peptide": "MTPTDFTSPI", "assay": "ELISA naked peptide; scFv 1 ug/mL; repII", "description": "(§1) The peptides were synthesized naked or with a N-terminal Biotin modification with a purity of >98%. All four scFvs were verified by ELISA that can be detected with anti-His antibodies. ELISA was performed for scFv-peptide binding validation. Briefly, naked peptides were coated (50 μg/mL) in 0.58M carbonate-bicarbonate buffer pH9.5, 100 μL/well, 4° C. O/N. Then after blocking (3% BSA-PBS, 300 μL/well 37° C. 1.5 h) and washing (PBS+Tween-20 0.05% v/v (0.05% PBST), wells were incubated with each purified scFv antibody at concentration of 1 μg/mL in PBS at 37° C. 1 h. After washing (0.05% PBST), wells were incubated with secondary antibodies (goat anti-His IgG-HRP) in PBS, 37° C., 30 min. After washing, and incubation with TMB substrate, reactions were stopped with 2M HCl and reading was quantified at OD450.\n(§2) Then a library of overlapping peptides were designed and constructed separately to produce 16 different peptides, covering full antigen sequence of total 48 aa. Peptide size was 10aa, with 7aa overlapping and ELISA screening of scFv against each peptide was performed in duplicate. Screening was performed using naked peptides in a standard plate or biotinylated peptides using avidin-plates."}, "naked peptide TDFTSPIPNM": {"molecular_target": "T2, naked peptide TDFTSPIPNM (human)", "T2 peptide": "TDFTSPIPNM", "assay": "ELISA naked peptide; scFv 1 ug/mL; repII", "description": "as §1, §2"}, "naked peptide TSPIPNMADD": {"molecular_target": "T3, naked peptide TSPIPNMADD (human)", "T3 peptide": "TSPIPNMADD", "assay": "ELISA naked peptide; scFv 1 ug/mL; repII", "description": "as §1, §2"}, "naked peptide IPNMADDYGS": {"molecular_target": "T4, naked peptide IPNMADDYGS (human)", "T4 peptide": "IPNMADDYGS", "assay": "ELISA naked peptide; scFv 1 ug/mL; repII", "description": "as §1, §2"}, "naked peptide MADDYGSEST": {"molecular_target": "T5, naked peptide MADDYGSEST (human)", "T5 peptide": "MADDYGSEST", "assay": "ELISA naked peptide; scFv 1 ug/mL; repII", "description": "as §1, §2"}, "naked peptide DYGSESTSSM": {"molecular_target": "T6, naked peptide DYGSESTSSM (human)", "T6 peptide": "DYGSESTSSM", "assay": "ELISA naked peptide; scFv 1 ug/mL; repII", "description": "as §1, §2"}, "naked peptide TSSMEDYVNF": {"molecular_target": "T7, naked peptide TSSMEDYVNF (human)", "T7 peptide": "TSSMEDYVNF", "assay": "ELISA naked peptide; scFv 1 ug/mL; repII", "description": "as §1, §2"}, "naked peptide SSMEDYVNFN": {"molecular_target": "T8, naked peptide SSMEDYVNFN (human)", "T8 peptide": "SSMEDYVNFN", "assay": "ELISA naked peptide; scFv 1 ug/mL; repII", "description": "as §1, §2"}, "naked peptide MEDYVNFNFT": {"molecular_target": "T9, naked peptide MEDYVNFNFT (human)", "T9 peptide": "MEDYVNFNFT", "assay": "ELISA naked peptide; scFv 1 ug/mL; repII", "description": "as §1, §2"}, "naked peptide YVNFNFTDFY": {"molecular_target": "T10, naked peptide YVNFNFTDFY (human)", "T10 peptide": "YVNFNFTDFY", "assay": "ELISA naked peptide; scFv 1 ug/mL; repII", "description": "as §1, §2"}, "naked peptide FNFTDFYCEK": {"molecular_target": "T11, naked peptide FNFTDFYCEK (human)", "T11 peptide": "FNFTDFYCEK", "assay": "ELISA naked peptide; scFv 1 ug/mL; repII", "description": "as §1, §2"}, "naked peptide TDFYCEKNNV": {"molecular_target": "T12, naked peptide TDFYCEKNNV (human)", "T12 peptide": "TDFYCEKNNV", "assay": "ELISA naked peptide; scFv 1 ug/mL; repII", "description": "as §1, §2"}, "naked peptide YCEKNNVRQF": {"molecular_target": "T13, naked peptide YCEKNNVRQF (human)", "T13 peptide": "YCEKNNVRQF", "assay": "ELISA naked peptide; scFv 1 ug/mL; repII", "description": "as §1, §2"}, "naked peptide KNNVRQFAS": {"molecular_target": "T14, naked peptide KNNVRQFAS (human)", "T14 peptide": "KNNVRQFAS", "assay": "ELISA naked peptide; scFv 1 ug/mL; repII", "description": "as §1, §2"}, "[1]": {"molecular_target": "T15, biotin-peptide MTPTDFTSPI (human, also: prints MTPTDFTSP, without I10)", "T15 peptide": "Biotin-MTPTDFTSPI", "assay": "ELISA biotin-peptide; scFv 10 ug/mL; repII", "description": "as §1\n(§3) ELISA with biotin-conjugated peptides (5 μg/mL) was performed very similar to described above with minor modifications."}, "[2]": {"molecular_target": "T16, biotin-peptide TDFTSPIPNM (human)", "T16 peptide": "Biotin-TDFTSPIPNM", "assay": "ELISA biotin-peptide; scFv 10 ug/mL; repII", "description": "as §1, §3"}, "[3]": {"molecular_target": "T17, biotin-peptide TSPIPNMADD (human)", "T17 peptide": "Biotin-TSPIPNMADD", "assay": "ELISA biotin-peptide; scFv 10 ug/mL; repII", "description": "as §1, §3"}, "[4]": {"molecular_target": "T18, biotin-peptide IPNMADDYGS (human)", "T18 peptide": "Biotin-IPNMADDYGS", "assay": "ELISA biotin-peptide; scFv 10 ug/mL; repII", "description": "as §1, §3"}, "[5]": {"molecular_target": "T19, biotin-peptide MADDYGSEST (human)", "T19 peptide": "Biotin-MADDYGSEST", "assay": "ELISA biotin-peptide; scFv 10 ug/mL; repII", "description": "as §1, §3"}, "[6]": {"molecular_target": "T20, biotin-peptide DYGSESTSSM (human)", "T20 peptide": "Biotin-DYGSESTSSM", "assay": "ELISA biotin-peptide; scFv 10 ug/mL; repII", "description": "as §1, §3"}, "[7]": {"molecular_target": "T21, biotin-peptide SESTSSMEDY (human)", "T21 peptide": "Biotin-SESTSSMEDY", "assay": "ELISA biotin-peptide; scFv 10 ug/mL; repII", "description": "as §1, §3"}, "[8]": {"molecular_target": "T22, biotin-peptide TSSMEDYVNF (human)", "T22 peptide": "Biotin-TSSMEDYVNF", "assay": "ELISA biotin-peptide; scFv 10 ug/mL; repII", "description": "as §1, §3"}, "[9]": {"molecular_target": "T23, biotin-peptide SSMEDYVNFN (human)", "T23 peptide": "Biotin-SSMEDYVNFN", "assay": "ELISA biotin-peptide; scFv 10 ug/mL; repII", "description": "as §1, §3"}, "[10]": {"molecular_target": "T24, biotin-peptide SMEDYVNFNF (human)", "T24 peptide": "Biotin-SMEDYVNFNF", "assay": "ELISA biotin-peptide; scFv 10 ug/mL; repII", "description": "as §1, §3"}, "[11]": {"molecular_target": "T25, biotin-peptide MEDYVNFNFT (human)", "T25 peptide": "Biotin-MEDYVNFNFT", "assay": "ELISA biotin-peptide; scFv 10 ug/mL; repII", "description": "as §1, §3"}, "[12]": {"molecular_target": "T26, biotin-peptide YVNFNFTDFY (human)", "T26 peptide": "Biotin-YVNFNFTDFY", "assay": "ELISA biotin-peptide; scFv 10 ug/mL; repII", "description": "as §1, §3"}, "[13]": {"molecular_target": "T27, biotin-peptide FNFTDFYCEK (human)", "T27 peptide": "Biotin-FNFTDFYCEK", "assay": "ELISA biotin-peptide; scFv 10 ug/mL; repII", "description": "as §1, §3"}, "[14]": {"molecular_target": "T28, biotin-peptide TDFYCEKNNV (human)", "T28 peptide": "Biotin-TDFYCEKNNV", "assay": "ELISA biotin-peptide; scFv 10 ug/mL; repII", "description": "as §1, §3"}, "[15]": {"molecular_target": "T29, biotin-peptide YCEKNNVRQF (human)", "T29 peptide": "Biotin-YCEKNNVRQF", "assay": "ELISA biotin-peptide; scFv 10 ug/mL; repII", "description": "as §1, §3"}, "biotin-peptide KNNVRQFAS": {"molecular_target": "T30, biotin-peptide KNNVRQFAS (human)", "T30 peptide": "Biotin-KNNVRQFAS", "assay": "ELISA biotin-peptide; scFv 10 ug/mL; repII", "description": "as §1, §3"}}, "note": "Where no end group is shown, it is not given here. The star is where a group is joined. Biotin = O=C1N[C@H]2[C@H](CS[C@H]2CCCCC(=O)*)N1", "data": [{"binder": "B1", "values": [{"measurement": "OD450", "setting": "naked peptide MTPTDFTSPI", "value": 0.04, "unit": "OD"}, {"measurement": "OD450", "setting": "naked peptide TDFTSPIPNM", "value": 0.06, "unit": "OD"}, {"measurement": "OD450", "setting": "naked peptide TSPIPNMADD", "value": 0.05, "unit": "OD"}, {"measurement": "OD450", "setting": "naked peptide IPNMADDYGS", "value": 0.01, "unit": "OD"}, {"measurement": "OD450", "setting": "naked peptide MADDYGSEST", "value": 0.02, "unit": "OD"}, {"measurement": "OD450", "setting": "naked peptide DYGSESTSSM", "value": 0.02, "unit": "OD"}, {"measurement": "OD450", "setting": "naked peptide TSSMEDYVNF", "value": 0.03, "unit": "OD"}, {"measurement": "OD450", "setting": "naked peptide SSMEDYVNFN", "value": 0.09, "unit": "OD"}, {"measurement": "OD450", "setting": "naked peptide MEDYVNFNFT", "value": 0.06, "unit": "OD"}, {"measurement": "OD450", "setting": "naked peptide YVNFNFTDFY", "value": 0.04, "unit": "OD"}, {"measurement": "OD450", "setting": "naked peptide FNFTDFYCEK", "value": 0.02, "unit": "OD"}, {"measurement": "OD450", "setting": "naked peptide TDFYCEKNNV", "value": 0.03, "unit": "OD"}, {"measurement": "OD450", "setting": "naked peptide YCEKNNVRQF", "value": 0.04, "unit": "OD"}, {"measurement": "OD450", "setting": "naked peptide KNNVRQFAS", "value": 0.02, "unit": "OD"}, {"measurement": "OD450", "setting": "[1]", "value": 0.07, "unit": "OD"}, {"measurement": "OD450", "setting": "[2]", "value": 0.08, "unit": "OD"}, {"measurement": "OD450", "setting": "[3]", "value": 0.15, "unit": "OD"}, {"measurement": "OD450", "setting": "[4]", "value": 0.14, "unit": "OD"}, {"measurement": "OD450", "setting": "[5]", "value": 0.07, "unit": "OD"}, {"measurement": "OD450", "setting": "[6]", "value": 0.11, "unit": "OD"}, {"measurement": "OD450", "setting": "[7]", "value": 0.1, "unit": "OD"}, {"measurement": "OD450", "setting": "[8]", "value": 0.08, "unit": "OD"}, {"measurement": "OD450", "setting": "[9]", "value": 0.13, "unit": "OD"}, {"measurement": "OD450", "setting": "[10]", "value": 0.1, "unit": "OD"}, {"measurement": "OD450", "setting": "[11]", "value": 0.14, "unit": "OD"}, {"measurement": "OD450", "setting": "[12]", "value": 0.09, "unit": "OD"}, {"measurement": "OD450", "setting": "[13]", "value": 0.05, "unit": "OD"}, {"measurement": "OD450", "setting": "[14]", "value": 0.05, "unit": "OD"}, {"measurement": "OD450", "setting": "[15]", "value": 0.06, "unit": "OD"}, {"measurement": "OD450", "setting": "biotin-peptide KNNVRQFAS", "value": 0.06, "unit": "OD"}]}]}
